Source: patent US20140378530A1

Target: glutathione-S-transferase (GST)-tagged recombinant RARa ligand binding domain (LBD) (UniProt P10276)
Assay: cell-free TR-FRET coactivator recruitment assay; the concentration varied is that of the retinoid Rald, not of either protein

Sequence of glutathione-S-transferase (GST)-tagged recombinant RARa ligand binding domain (LBD) (P10276 183-417 limits assumed): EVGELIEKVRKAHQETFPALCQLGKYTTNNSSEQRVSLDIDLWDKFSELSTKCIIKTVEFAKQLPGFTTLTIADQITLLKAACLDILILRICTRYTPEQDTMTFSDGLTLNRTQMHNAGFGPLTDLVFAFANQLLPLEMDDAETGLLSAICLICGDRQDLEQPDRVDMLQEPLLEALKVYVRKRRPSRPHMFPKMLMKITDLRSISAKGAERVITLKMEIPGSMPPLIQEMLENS

EC50 of retinaldehyde (Rald, small-molecule ligand) for recruitment of PGC-1a to RARa: 82 nM
Substance: fluorescein-labeled coactivator peptide (PGC-1a)
